This experiment concerns the target p-ERK1/2 (Thr202/Tyr204). The experiment is described as follows: co-IP (IP: Flag, IB: p-ERK1/2), band intensity quantified in bar chart. Conditions: whole-cell extracts from MCF-7C5RN cells; without CGP57380; parent: est. 0.24; read off a plot.

On to “Flag-WTAP (wild type) (from UniProt Q15007) S341A”, for which the response worked out at 0.11.

These data come from publication PMC8313695.
